Measurements reported in patent publication US20240382606A1.
Values joined by “and” are separate entries in the source; they are usually repeats but may differ in a detail not shown here. Identical values can stand only once.

How the values were obtained:
[1] = target: P14 T cell receptor (TCR that specifically recognizes LCMV GP33/D^b), on CD8+ T cells of P14 TCR transgenic mice (mouse); experiment: flow cytometry, APNs on CD8+ T cells from P14 mice, in vitro
[2] = target: P14 T cell receptor (TCR that specifically recognizes LCMV GP33/D^b), on CD8+ T cells of P14 TCR transgenic mice (mouse)
[3] = target: P14 T cell receptor (TCR that specifically recognizes LCMV GP33/D^b), on CD8+ T cells of P14 TCR transgenic mice (mouse); experiment: cell-based or functional assay
[4] = target: Pmel T cell receptor (cognate TCR against GP100/D^b), on CD8+ T cells of Pmel TCR transgenic mice (mouse); experiment: cell-based or functional assay
[5] = target: P14 T cell receptor (TCR that specifically recognizes LCMV GP33/D^b), on CD8+ T cells of P14 TCR transgenic mice (mouse); experiment: flow cytometry after intravenous injection of pMHC-LNPs carrying mCD19 CAR mRNA in p14 mice
[6] = target: P14 T cell receptor (TCR that specifically recognizes LCMV GP33/D^b), on CD8+ T cells of P14 TCR transgenic mice (mouse); remark: listed apart in the source

Row | Substance | percent of CD8+ T cells bound [1] | percent of CD8+ T cells targeted (DiD fluorescence) [2] | in vivo transfection efficiency (surface VHH) of P14 CD8+ splenocytes [3] | in vivo transfection efficiency of mCD19 CAR mRNA in CD8+ T cells of p14 mice [3] | in vivo transfection of CD8+ T cells with hCD19 CAR mRNA in p14 mice [3] | transfection efficiency with eGFP mRNA in P14 CD8+ T cells in vitro [3] | in vivo transfection of Pmel CD8+ splenocytes (surface VHH) [4] | percent of CD8+ T cells targeted [5] | percent of CD8+ splenocytes stained [6] | percent of CD8+ T cells stained [1] | percent binding (DiD fluorescence) [2]
1 | GP33/D^b antigen-presenting nanoparticle (APN): LCMV GP33 peptide […] on H2-D^b, lipid-anchore (peptide-MHC) | 97% | > 95% | 40% | 60% | 30% | 31% | 3% | > 80% | – | – | –
2 | GP33/D^b tetramer (fluorescent streptavidin tetramer of […]/H2-D^b monomers) (from UniProt P01899 25-309) (peptide-MHC) | – | – | – | – | – | – | – | – | > 95% | – | –
3 | GP100/D^b antigen-presenting nanoparticle (APN): GP100 peptide … on H2-D^b on an mRNA lipid nanoparticle (peptide-MHC) | – | – | < 2% | – | – | – | 30% and 40% | – | – | 3.22% | < 2%
